Experimental data as given in US11834499 (University of California, dated 2023).
Where a chain is given by its changes, count along the chain named.

B1: Ab 432 (antibody, V domains shown)
VH: QIQLQQSGAELARPRASVKLSCKASGYTFTSDVISWVKQRPGQGLEWIGESYLRNGNTYYNENFKGKATLTADKSSSTAYMELRSLTSEDSAVYFCARSYYGNSFAYWGQGTLVTVSA
VL: DIVMTQSPSSLTVTAREKVTMNCKSTQSLLNSGNQKNYLTWYQQKPGQPPKLLIYWASTRESGVPDRFTGSGSGTDFTLTISSVQAEDLAVYYCQNAYYYPFTFGGGTKLEIK
notes: also called 432-Chim
B2: HuAb307-1 (antibody, V domains shown)
VH: EVQLLESGGGLVQPGGSLRLSCAASGFTFSSYTMSWVRQAPGKGLEWVATIIIGGSYTYYADSVKGRFTISRDNSKNTLYLQMNSLRAEDTAVYYCTRLVKGNAMDYWGQGTLVTVSS
VL: DIVMTQSPDSLAVSLGERATINCKSSQSLLNSGNQKNYLSWYQQKPGQPPKLLIYWASTRESGVPDRFSGSGSGTDFTLTISSLQAEDVAVYYCQNDYSYPFTFGQGTKLEIK
B3: HuAb432-1 (antibody, V domains shown)
VH: QVQLVQSGAEVKKPGSSVKVSCKASGYTFTSDVISWVRQAPGQGLEWMGESYLRNGNTYYAQKFQGRVTITADKSTSTAYMELSSLRSEDTAVYYCARSYYGNSFAYWGQGTLVTVSS
VL: B2 VL with S26T, S40T, D97A, S99Y
B4: HuAb358-2 (antibody, V domains shown)
VH: EVQLVESGGGLVQPGGSLRLSCAVSGFTFSSFGMHWVRQAPGKGLEWVAYISSGTTNIYYADSVKGRFTVSRDNAKNSLYLQMNSLRAEDTAVYYCVRSGYYGNSLDYWGQGTLVTVSS
VL: B2 VL with A19V, I21M, L30F, K36R, S40T, L84V, D97V, S99I, F102L
B5: HuAb376-1 (antibody, V domains shown)
VH: B2 VH with I52S, I53S, G55V, V100T
VL: B2 VL with S40T
B6: HuAb376-2 (antibody, V domains shown)
VH: B2 VH with I52S, I53S, G55V, V100T
VL: B2 VL with A19V, I21M, S40T, L84V
B7: HuAb358-1 (antibody, V domains shown)
VH: B4 VH
VL: B2 VL with L30F, K36R, S40T, D97V, S99I, F102L
B8: HuAb432-3 (antibody, V domains shown)
VH: B3 VH with V20L, M48I, V68A, I70L
VL: B2 VL with S26T, S40T, D97A, S99Y
B9: HuAb432-4 (antibody, V domains shown)
VH: B3 VH with V20L, M48I, V68A, I70L
VL: B2 VL with A19V, I21M, S26T, S40T, L84V, D97A, S99Y
B10: HuAb432-2 (antibody, V domains shown)
VH: B3 VH
VL: B2 VL with A19V, I21M, S26T, S40T, L84V, D97A, S99Y
B11: HuAb307-2 (antibody, V domains shown)
VH: B2 VH
VL: B2 VL with I54F

These binders were tested against T1, human Claudin-18.2 (CLDN18.2) (human) (assay: FACS, 1.5 ug antibody, HEK293T-CLDN18.2 C12 clone cells).
T1 construct: On cells: fused to GFP in engineered HEK293T cells (clone C12), endogenous in HUPT4 and SNU601 cells; also called human CLDN18.2
B1 was tested, and the “FACS signal (relative antigen binding strength)” value was 161000.
For B2, the “FACS signal (relative antigen binding strength)” value was 126000.
B3 was tested, and the “FACS signal (relative antigen binding strength)” value was 97400.
For B4, the “FACS signal (relative antigen binding strength)” value was 122000.
In the case of B5, the “FACS signal (relative antigen binding strength)” value is reported as 140000.
B6 was tested, and the “FACS signal (relative antigen binding strength)” value was 119000.
With B7 the “FACS signal (relative antigen binding strength)” value was 131000.
For B8, the “FACS signal (relative antigen binding strength)” value was 88800.
In the case of B9, the “FACS signal (relative antigen binding strength)” value is reported as 173000.
B10 was tested, and the “FACS signal (relative antigen binding strength)” value was 128000.
For B11, the “FACS signal (relative antigen binding strength)” value was 133000.

Each binder was assayed against T1, human Claudin-18.2 (CLDN18.2) (assay: FACS, 1.5 ug antibody, HUPT4 cells (endogenous CLDN18.2)).
Procedure: FACS assays were carried out to determine relative antigen binding strengths of the humanized antibodies (at either 1.5 μg or 0.3 μg) for binding to CLDN18.2 as expressed by the indicated cancer cell lines.
For B1, the “FACS signal (relative antigen binding strength)” value was 27900.
B2 was tested, and the “FACS signal (relative antigen binding strength)” value was 30200.
With B3 the “FACS signal (relative antigen binding strength)” value was 30600.
B4 was tested, and the “FACS signal (relative antigen binding strength)” value was 29800.
B5 was tested, and the “FACS signal (relative antigen binding strength)” value was 29700.
In the case of B6, the “FACS signal (relative antigen binding strength)” value is reported as 28300.
With B7 the “FACS signal (relative antigen binding strength)” value was 52700.
B8 was tested, and the “FACS signal (relative antigen binding strength)” value was 27100.
In the case of B9, the “FACS signal (relative antigen binding strength)” value is reported as 23100.
With B10 the “FACS signal (relative antigen binding strength)” value was 36100.
B11 was tested, and the “FACS signal (relative antigen binding strength)” value was 32500.
